The target of the assay is importin α ΔIBB (NLS-recognition domain of importin α). Nature of the assay: ITC.

Substance “GM130 N74 S25D-GST (Cdk1 phospho-mimicking mutant) (from UniProt Q62839 1-74) (domain or fragment)” had a fold higher affinity than TPX2 NLS of 9 fold and a stoichiometry N of 1.
“GST-TPX2 NLS wildtype (mouse TPX2 residues 302-322) (from UniProt A2APB8 302-322) (peptide)” displayed a stoichiometry N of 1.

Source of the values: paper PMC4506739.
